{"source": "paper PMC12429969", "key": {"[1]": {"molecular_target": "cell surface IgG (sIgG) of the sIgG+ B-cell line SU-DHL-4 (human (endogenous in SU-DHL-4))"}, "[2]": {"molecular_target": "cell surface IgG (sIgG) of the sIgG+ B-cell line SU-DHL-4 (human (endogenous in SU-DHL-4))", "remark": "listed apart in the source"}}}
{"substance": "IgAimG (SpA toxin 2): diphtheria toxin without its receptor binding domain, GGGS linker, SpA ZZ domain", "values": [{"measurement": "viability of the sIgG+ B-cell line SU-DHL-4 after 3 days with the toxin (luminescent cell viability assay); toxic from 0.0001 μg/ml (% of cells killed)", "setting": "[1]", "value": 99}, {"measurement": "viability of SU-DHL-4 after 3 days with 10 to 100 μg/ml IgAimG in the presence of human serum (luminescent cell viability assay) (% of cells killed)", "setting": "[2]", "value": "> 99"}]}
